Reference: US6476188 (ROCKEFELLER UNIVERSITY, dated 2002)
Where a chain is given by its changes, count along the chain named. Each block holds one binder with its values, some of them ahead of it.

Columns and labels:
[1] = target: mouse PERIOD2 (mPER2), in vitro translated, 35S-methionine-labeled (mouse, UniProt O54943 1-1257, limits assumed); assay: in vitro binding, S-agarose-bound recombinant CK1ε with 35S-labeled in vitro translated mPER2
Experimental: (§1) Half of the bound beads were then added to a kinase reaction as described above and in Example 3 below, but without c-casein or phosvitin, and incubated at 37° C. for 5 minutes. […] Reactions were separated on 12% SDS-PAGE gels, dried and exposed to phosphor screens. Following exposure to detect both the ^35S and ^32P signals, dried gels were covered with two layers of exposed X-OMAT film to block the ^35S signal. […] PER signal is indicated by filled triangles.
(§2) Per binding studies: For binding assays, mPER1 and mPER2 were synthesized from cDNAs cloned in plasmids by coupled in vitro transcription/translation reactions using ^35S-methionine in a total reaction volume of 50 μl (TNT T7 Coupled Reticulocyte Lysate System, Promega). Recombinant CK1ε was purified from *E. coli* by capture on S-agarose beads as described above. To reduce non-specific binding, 20 μl of in vitro-translated product was mixed with 50 μl of plain S-agarose beads in HND buffer (20 mM HEPES, pH 7.5, 100 mM KCl, 10% glycerol, 0.4% NP40, 1 mM DTT) with 5% BSA. This mixture was incubated at room temperature with shaking for 1 hour. Following incubation, the mixture was centrifuged at 2500 rpm for 5 minutes and the resulting supernatant was divided into two equal aliquots. […]

[2] = target: mouse PERIOD1 (mPER1), in vitro translated, 35S-methionine-labeled (mouse, UniProt O35973 1-1291, limits assumed); assay: in vitro binding, S-agarose-bound recombinant CK1ε with 35S-labeled in vitro translated mPER1
Chain of mouse PERIOD1 (mPER1), in vitro translated, 35S-methionine-labeled (O35973 whole entry): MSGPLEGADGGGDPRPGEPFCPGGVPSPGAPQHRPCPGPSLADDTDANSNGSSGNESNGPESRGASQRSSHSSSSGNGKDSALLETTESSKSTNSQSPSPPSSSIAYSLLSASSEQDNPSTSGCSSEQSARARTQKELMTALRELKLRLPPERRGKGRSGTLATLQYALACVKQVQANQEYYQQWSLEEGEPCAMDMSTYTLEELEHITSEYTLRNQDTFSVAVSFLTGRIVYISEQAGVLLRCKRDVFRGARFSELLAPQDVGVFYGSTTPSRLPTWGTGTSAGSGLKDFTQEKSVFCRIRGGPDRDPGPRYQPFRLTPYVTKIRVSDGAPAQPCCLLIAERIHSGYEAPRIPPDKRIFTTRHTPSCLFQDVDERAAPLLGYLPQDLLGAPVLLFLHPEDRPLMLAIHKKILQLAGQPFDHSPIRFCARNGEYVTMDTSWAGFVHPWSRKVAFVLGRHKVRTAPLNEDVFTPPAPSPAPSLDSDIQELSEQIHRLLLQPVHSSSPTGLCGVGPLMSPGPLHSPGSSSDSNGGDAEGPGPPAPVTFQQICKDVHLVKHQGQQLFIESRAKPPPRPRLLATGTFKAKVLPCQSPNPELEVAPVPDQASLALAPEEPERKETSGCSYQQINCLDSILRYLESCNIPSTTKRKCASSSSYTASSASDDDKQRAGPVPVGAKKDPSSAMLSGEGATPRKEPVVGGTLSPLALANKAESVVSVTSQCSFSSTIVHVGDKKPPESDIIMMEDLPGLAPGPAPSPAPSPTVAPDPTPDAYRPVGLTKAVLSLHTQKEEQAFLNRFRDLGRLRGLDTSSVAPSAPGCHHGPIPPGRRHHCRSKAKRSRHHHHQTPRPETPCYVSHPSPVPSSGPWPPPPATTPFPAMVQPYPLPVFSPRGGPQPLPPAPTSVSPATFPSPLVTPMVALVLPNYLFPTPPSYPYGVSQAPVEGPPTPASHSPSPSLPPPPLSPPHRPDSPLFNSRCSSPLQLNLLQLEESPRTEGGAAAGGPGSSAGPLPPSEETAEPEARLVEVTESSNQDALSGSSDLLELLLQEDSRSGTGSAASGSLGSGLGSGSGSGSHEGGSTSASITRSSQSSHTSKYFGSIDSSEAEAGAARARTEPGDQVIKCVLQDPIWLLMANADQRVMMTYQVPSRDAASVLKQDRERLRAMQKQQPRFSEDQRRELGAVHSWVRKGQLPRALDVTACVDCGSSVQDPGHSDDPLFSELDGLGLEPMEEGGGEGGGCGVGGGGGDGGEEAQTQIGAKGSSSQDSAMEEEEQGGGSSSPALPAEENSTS
Experimental: as §1, §2

[3] = target: T1, GST-PER 530-640 fusion protein (Drosophila, UniProt P07663 530-640); assay: GST pull-down, 35S-labeled in vitro translated DBT, SDS-PAGE and autoradiography
T1 construct: range 530-640; Constructed as described in Saez and Young 1996 (cited); Immobilized on glutathione agarose beads; also called aa 530-640 of PER; not shown: Glutathione-S-transferase (GST) fusion partner
T1 sequence (looked up): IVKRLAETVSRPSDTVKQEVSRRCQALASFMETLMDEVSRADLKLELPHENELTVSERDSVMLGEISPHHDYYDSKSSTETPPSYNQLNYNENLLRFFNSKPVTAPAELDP
Description: (§3) The staining confirms that similar amounts of GST and GST-PER fusion proteins were used in the assay. Arrow indicates BSA present in all the washes. (Right) GST alone and the indicated GST-PER fusions were used to bind in vitro translated, ^35S-labeled DBT protein. Labeled DBT proteins that bound to the indicated GST-PER fusions were visualized by SDS-PAGE and autoradiography. […] For hs-gfp-dbt, GFP was fused to the amino terminus of DBT.

[4] = target: T2, GST (Glutathione-S-transferase) alone (UniProt P08515 1-218 = GST); assay: as above
T2 construct: Control in the pull-down assay
T2 sequence (P08515 whole entry): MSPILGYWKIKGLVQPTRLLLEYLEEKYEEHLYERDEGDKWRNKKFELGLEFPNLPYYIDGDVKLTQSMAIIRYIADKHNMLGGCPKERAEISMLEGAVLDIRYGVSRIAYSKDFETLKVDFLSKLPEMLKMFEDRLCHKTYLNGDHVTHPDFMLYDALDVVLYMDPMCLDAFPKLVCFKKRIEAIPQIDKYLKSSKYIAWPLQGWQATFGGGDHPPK
Description: as §3

Chain of mouse PERIOD2 (mPER2), in vitro translated, 35S-methionine-labeled (O54943 whole entry): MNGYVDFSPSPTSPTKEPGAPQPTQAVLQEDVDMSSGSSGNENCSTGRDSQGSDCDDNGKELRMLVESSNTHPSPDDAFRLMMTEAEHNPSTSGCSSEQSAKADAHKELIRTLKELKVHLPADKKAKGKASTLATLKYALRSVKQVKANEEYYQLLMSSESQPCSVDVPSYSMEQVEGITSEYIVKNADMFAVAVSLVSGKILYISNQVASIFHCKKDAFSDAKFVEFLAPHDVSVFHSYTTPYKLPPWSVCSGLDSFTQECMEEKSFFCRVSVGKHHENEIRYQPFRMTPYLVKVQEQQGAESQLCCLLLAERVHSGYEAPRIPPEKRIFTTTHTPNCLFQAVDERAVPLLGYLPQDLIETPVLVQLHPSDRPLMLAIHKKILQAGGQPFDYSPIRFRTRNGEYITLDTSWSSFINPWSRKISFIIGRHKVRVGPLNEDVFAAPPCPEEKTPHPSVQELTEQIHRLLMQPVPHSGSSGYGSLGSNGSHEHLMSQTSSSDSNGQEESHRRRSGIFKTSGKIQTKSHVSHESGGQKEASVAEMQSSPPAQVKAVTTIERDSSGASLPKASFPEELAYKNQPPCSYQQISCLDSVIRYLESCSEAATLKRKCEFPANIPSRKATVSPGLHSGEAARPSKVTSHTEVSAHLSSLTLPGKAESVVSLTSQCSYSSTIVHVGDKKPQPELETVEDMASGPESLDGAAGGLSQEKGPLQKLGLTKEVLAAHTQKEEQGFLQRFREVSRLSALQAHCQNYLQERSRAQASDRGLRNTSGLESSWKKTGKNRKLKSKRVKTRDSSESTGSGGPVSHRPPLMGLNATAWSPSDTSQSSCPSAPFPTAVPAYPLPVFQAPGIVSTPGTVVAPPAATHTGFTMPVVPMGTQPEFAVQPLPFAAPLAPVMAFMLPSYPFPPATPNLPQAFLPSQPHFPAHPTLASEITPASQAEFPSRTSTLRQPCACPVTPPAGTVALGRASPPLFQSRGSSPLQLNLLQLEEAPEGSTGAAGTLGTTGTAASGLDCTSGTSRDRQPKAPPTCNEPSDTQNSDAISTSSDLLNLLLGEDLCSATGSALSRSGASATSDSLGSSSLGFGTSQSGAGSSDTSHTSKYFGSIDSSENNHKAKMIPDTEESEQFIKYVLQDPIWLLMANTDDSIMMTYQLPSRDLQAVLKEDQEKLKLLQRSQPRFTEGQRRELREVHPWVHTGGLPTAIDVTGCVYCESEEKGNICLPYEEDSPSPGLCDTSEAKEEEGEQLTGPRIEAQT

binding result [1]: binds | binding result [2]: binds
B1: recombinant wild-type hamster CK1ε with N-terminal S•Tag and His-Tag fusions, captured on S-protein agarose (enzyme)
chain: MELRVGNKYRLGRKIGSGSFGDIYLGANIASGEEVAIKLECVKTKHPQLHIESKFYKMMQGGVGIPSIKWCGAEGDYNVMVMELLGPSLEDLFNFCSRKFSLKTVLLLADQMISRIEYIHSKNFIHRDVKPDNFLMGLGKKGNLVYIIDFGLAKKYRDARTHQHIPYRENKNLTGTARYASINTHLGIEQSRRDDLESLGYVLMYFNLGSLPWQGLKAATKRQKYERISEKKMSTPIEVLCKGYPSEFSTYLNFCRSLRFDDKPDYSYLRQLFRNLFHRQGFSYDYVFDWNMLKFGAARNPEDVDRERREHEREERMGQLRGSATRALPPGPPTGATANRLRSAAEPVASTPASRIQQAGNTSPRAISRADRERKVSMRLHRGAPANVSSSDLTGRQEVSRISASQTSVPFDHLGK
notes: Full-length cDNA expressed in E. coli BL21(DE3)pLysS; The preparation holds both autophosphorylated and unphosphorylated forms; also called wild-type CK1ε; WT; not shown: N-terminal S•Tag (15 amino acids) and His-Tag fusion from the pET-30 LIC vector

binding result [1]: binds | binding result [2]: binds
B2: recombinant tau mutant hamster CK1ε (Arg178Cys) with N-terminal S•Tag and His-Tag fusions, captured on S-protein agarose (enzyme)
chain: B1 chain with R178C
notes: Full-length tau cDNA expressed in E. coli; Arg #178 of the wild-type protein is replaced by cysteine; also called tau CK1ε; tau mutant enzyme; not shown: N-terminal S•Tag (15 amino acids) and His-Tag fusion from the pET-30 LIC vector

binding result [3]: no binding | binding result [4]: no binding
B3: DOUBLETIME protein (DBT), Drosophila, in vitro translated from dbt cDNA P12, 35S-labeled (enzyme)
chain: MELRVGNKYRLGRKIGSGSFGDIYLGTTINTGEEVAIKLECIRTKHPQLHIESKFYKTMQGGIGIPRIIWCGSEGDYNVMVMELLGPSLEDLFNFCSRRFSLKTVLLLADQMISRIDYIHSRDFIHRDIKPDNFLMGLGKKGNLVYIIDFGLAKKFRDARSLKHIPYRENKNLTGTARYASINTHLGIEQSRRDDLESLGYVLMYFNLGALPWQGLKAANKRQKYERISEKKLSTSIVVLCKGFPSEFVNYLNFCRQMHFDQRPDYCHLRKLFRNLFHRLGFTYDYVFDWNLLKFGGPRNPQAIQQAQDGADGQAGHDAVAAAAAVAAAAAASSHQQQQHKVNAALGGGGGSRAQQQLQGGQTLAMLGGNGGGNGSQLIGGNGLNMDDSMAATNSSRPPYDTPERRPSIRMRQGGGGGGGGVGVGGMQSGGGGGGVGNAK
notes: In vitro translated, 35S-labeled; about 46 kDa by SDS-PAGE; the open reading frame predicts 440 aa; also called Drosophila CK1ε
